These results are taken from article PMC12578637, “Structure of a distinct β-barrel assembly machinery complex in the Bacteroidota” (Nature Microbiology, 2025).

Sequences and labels used below:
B2: BtBamH (Bt4306) (natural protein, UniProt Q89ZS0 18-542, looked up)
chain: CDDNTGGLGLGMFPGNDQNIKGKLSTFDVTTESVKTGDIYAKTNIGYIGKFTDETFGTYQAGFLAQLNCPDGLTFPEPYKEVTDASGNVISATGRMVVDDKDPENKDVTFIKDGNQIIGNIRAVELYLWYDSYFGDSLTACRLSVYELGGNGKETLNLDNAYYTDINPEDFYDSQNILGTKAYTAVDLSVKDSIRNLSTYVPSVHIAFKEDIATRVGGNILTAARKAKNADKEFNSQLFREAFQGIYVKSDYGDGTVLYIDQPQMNVVYKCYATDSITGKKLQKKDGSGKDSTYYSYRVFATTREVIQANQLKNDPERIDALIKEDKNTYLKSPAGIFTEATLPISDIQNELTGDTLNAVKLTFTNYNQTGDKKFGMAIPSTVMLVRKKFQDSFFKDNKLSDGVSSYLTSHTSSTNQYVFSNITKLVNACIAEKEEAKKNAGSSWDETKWLQENPDWNKVVLIPVLVTYDSSNTTTGQANIIRIQHDLKPGYVRLKGGSLGKTNPDYKLKLEVISTDFGLTTKSN
modifications: tri-acylated lipid anchor on the N-terminal cysteine; O-glycosylation (Ser309 among the sites)

What all share (experiment): cryo-EM structure; BtBAM complex co-purified through BamAhis from native membranes, in DDM, 8 mg/ml; two 3D classes (3.28 Å and 3.46 Å); AF2 models docked and refined
Holding throughout (settings): both partners purified

One test deals with T1, BtBamI (Bt3727) (B. thetaiotaomicron (endogenous in B. …, UniProt Q8A1D9 22-493, lipid anchor cysteine)); O-glycosylation at 10 sites (Ser67 among them)).
T1 sequence (looked up): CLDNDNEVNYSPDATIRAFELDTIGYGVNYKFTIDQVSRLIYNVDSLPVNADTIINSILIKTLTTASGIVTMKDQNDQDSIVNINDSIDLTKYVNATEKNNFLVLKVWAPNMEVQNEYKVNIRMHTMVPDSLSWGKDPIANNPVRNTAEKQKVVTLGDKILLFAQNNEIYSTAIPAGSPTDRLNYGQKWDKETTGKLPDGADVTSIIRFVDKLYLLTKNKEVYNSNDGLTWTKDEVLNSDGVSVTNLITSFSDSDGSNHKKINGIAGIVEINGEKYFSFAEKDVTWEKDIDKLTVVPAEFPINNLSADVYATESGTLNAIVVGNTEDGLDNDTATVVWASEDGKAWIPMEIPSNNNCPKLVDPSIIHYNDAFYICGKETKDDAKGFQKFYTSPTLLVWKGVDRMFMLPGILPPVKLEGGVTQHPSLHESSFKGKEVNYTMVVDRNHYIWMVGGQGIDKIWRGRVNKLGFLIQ

The target in the test “BtBamH (Bt4306)” is B2.
In test [1] the target is T2, BtBamA (Bt3725), B. thetaiotaomicron BamA with N-terminal His7 tag (B. thetaiotaomicron, UniProt Q8A1E1 20-885).
T2 sequence (looked up): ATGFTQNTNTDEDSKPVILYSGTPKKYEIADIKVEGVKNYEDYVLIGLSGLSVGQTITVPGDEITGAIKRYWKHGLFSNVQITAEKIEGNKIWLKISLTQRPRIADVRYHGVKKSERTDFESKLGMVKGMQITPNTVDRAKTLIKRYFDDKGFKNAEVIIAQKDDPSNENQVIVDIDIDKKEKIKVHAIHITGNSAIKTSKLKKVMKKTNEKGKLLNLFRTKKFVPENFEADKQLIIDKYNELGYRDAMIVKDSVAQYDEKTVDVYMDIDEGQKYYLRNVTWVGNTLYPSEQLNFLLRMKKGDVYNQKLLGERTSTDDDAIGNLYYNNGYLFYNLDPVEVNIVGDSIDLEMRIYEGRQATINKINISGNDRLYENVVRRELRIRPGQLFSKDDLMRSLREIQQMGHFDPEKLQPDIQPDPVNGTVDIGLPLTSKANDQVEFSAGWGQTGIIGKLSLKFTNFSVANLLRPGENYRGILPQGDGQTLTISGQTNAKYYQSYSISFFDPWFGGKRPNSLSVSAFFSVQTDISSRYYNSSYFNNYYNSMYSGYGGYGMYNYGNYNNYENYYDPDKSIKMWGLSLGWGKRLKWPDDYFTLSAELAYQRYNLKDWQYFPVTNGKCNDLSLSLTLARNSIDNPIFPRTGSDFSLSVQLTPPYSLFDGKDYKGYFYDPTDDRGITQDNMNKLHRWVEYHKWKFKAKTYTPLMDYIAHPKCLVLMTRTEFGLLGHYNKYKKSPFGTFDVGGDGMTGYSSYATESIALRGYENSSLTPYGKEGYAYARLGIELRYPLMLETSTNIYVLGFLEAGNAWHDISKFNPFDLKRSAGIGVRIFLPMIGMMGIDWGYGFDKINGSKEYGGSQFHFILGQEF

B1: BtBamJ (Bt3612) (natural protein, UniProt Q8A1P7 20-196, looked up)
chain: CSETEEVGKYDNWRARNEAFIDSLANVYATASGRGGLERIEMLTAPGNYIYYKEMEPMTDHVVKAGNPKYTDYVKVYYKGTNILGEYFDGNFKGDNPVVDGKDPSEGDSPTTIFQVSGVITGWGEVLQRMEVGDRWKVYIPWDYAYGSSGTTGILGYSALVFDITLLDFANTEAELK
modifications: lipid anchor cysteine; O-glycosylation sites
With B1, the binding result with BtBamI (Bt3727) and with BtBamH (Bt4306) was “binds” in each case.

With B2, in test [1], the binding result is given as “binds”.
